Data set [1] addresses T1, E. coli homoserine transsuccinylase (MetA), wild type, SEQ ID NO: 2 (plasmid pKP413GAP) (Escherichia coli, UniProt P07623). Put plainly: biochemical. The note with it: pH 7.6, read-out: Activity (%) in the presence of 1 mM L-methionine.
Data set [2] deals with homoserine transsuccinylase. Particulars: cell extract of E. coli W3110 transformant; 1 mM homoserine, 0.1 mM succinyl-CoA, 50 mM Tris/Cl pH 7.6.
Data set [3] has as its system homoserine transsuccinylase. Put plainly: Homoserine transsuccinylase activity test (Lee et al., 5,5'-dithiobis(2-nitrobenzoic acid), 412 nm), activity and inhibition by SAM. It is filed as biochemical, E. coli. Particulars: cell extract; 3 mM homoserine, 0.3 mM succinyl-CoA, 50 mM potassium phosphate buffer pH 7.5.
Data set [4] deals with T1, E. coli homoserine transsuccinylase (MetA), wild type, SEQ ID NO: 2 (plasmid pKP413GAP). Particulars: pH 7.5, read-out: Activity (%) in the presence of 1 mM SAM.

Where two headings read alike, the source gives them in different places.

For the molecule `CSCC[C@H](N)C(=O)O` [L-methionine], the activity at 1000 µM in data set [1] was 2%. As to “pBaBmetAext: MetA variant with altered, extended carboxy-terminus from amino acid 297 onwards (SEQ ID No. 10) (SYIHHYLLVNNSTELWMHTRLIKRPHCDEWQGGA)”, the entries for the “Activity (U/mg)” value in data set [2] and in data set [3] were 0.011 U/mg and 0.082 U/mg, respectively. For `C[S+](CC[C@H](N)C(=O)[O-])C[C@H]1O[C@@H](n2cnc3c(N)ncnc32)[C@H](O)[C@@H]1O` (some centres unmarked) [SAM, S-Adenosylmethionine], in data set [4], the activity at 1000 µM was 0.5%. As for “pBaBmetAext2: MetA variant with altered, extended carboxy-terminus from amino acid 297 onwards (SEQ ID No. 12) (SYIHQYLLVNNSTELWMHTRLIKRPHCDEWQGGA)”, the “Activity (U/mg)” value in data set [2] amounted to 0.045 U/mg; in data set [3], 0.173 U/mg.

B1: pKP413GAP: E. coli wild-type homoserine transsuccinylase (MetA, SEQ ID No. 2) expressed from starting plasmid pKP413GAP under the GAPDH promoter (protein, listed as Escherichia coli)
chain: MPIRVPDELPAVNFLREENVFVMTTSRASGQEIRPLKVLILNLMPKKIETENQFLRLLSNSPLQVDIQLLRIDSRESRNTPAEHLNNFYCNFEDIQDQNFDGLIVTGAPLGLVEFNDVAYWPQIKQVLEWSKDHVTSTLFVCWAVQAALNILYGIPKQTRTEKLSGVYEHHILHPHALLTRGFDDSFLAPHSRYADFPAALIRDYTDLEILAETEEGDAYLFASKDKRIAFVTGHPEYDAQTLAQEFFRDVEAGLDPDVPYNYFPHNDPQNTPRASWRSHGNLLFTNWLNYYVYQITPYDLRHMNPTLD
With B1, the “Activity (U/mg)” value in data set [2] was determined as 0.155 U/mg; in data set [3], 0.62 U/mg.
